The target of test [1] is T1, zebrafish PTH1R receptor, clone zPTH1R#25 (longer 5' UT, 391 bp), transiently expressed in COS-7 cells (zebrafish (Danio rerio)).
T1 construct: only the 5' UT differs; also called zPPR1#25
T1 chain: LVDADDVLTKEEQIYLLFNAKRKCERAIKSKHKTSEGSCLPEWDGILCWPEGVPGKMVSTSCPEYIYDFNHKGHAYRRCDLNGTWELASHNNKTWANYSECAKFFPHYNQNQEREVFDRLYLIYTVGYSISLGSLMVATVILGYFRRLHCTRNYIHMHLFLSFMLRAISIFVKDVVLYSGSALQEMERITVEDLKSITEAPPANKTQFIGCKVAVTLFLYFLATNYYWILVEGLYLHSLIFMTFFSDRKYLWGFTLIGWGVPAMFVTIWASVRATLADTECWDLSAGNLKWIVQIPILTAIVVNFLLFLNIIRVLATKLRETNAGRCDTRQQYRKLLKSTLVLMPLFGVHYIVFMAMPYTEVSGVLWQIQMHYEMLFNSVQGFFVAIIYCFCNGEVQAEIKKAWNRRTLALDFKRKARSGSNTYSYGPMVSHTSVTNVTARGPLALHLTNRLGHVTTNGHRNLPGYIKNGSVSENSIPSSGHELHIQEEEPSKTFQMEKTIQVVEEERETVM
Description: competitive radioligand binding on intact COS-7 cells expressing the receptor, room temperature; unlabeled hPTH, radioligand not clearly stated (125I-rPTH or 125I-PTHrP). Here is the method: (§1) Peptides were synthesized by the MGH polymer core facility as described (Gardella et al., (1996)). Specific binding was calculated by subtracting radioligand binding in the presence of excess unlabeled peptide from the total binding. All points represent mean±S.E.M. of two to three replicates from two or more independent experiments.
(§2) Table 3. Binding and cAMP Signaling Properties of PTH and PTHrP Analogs on the zPTH1R and the zPTH3R Competitive binding and cAMP stimulation assays were performed at room temperature with intact COS-7 cells that expressed either the zPTH1R or the zPTH3R, as described in Materials and Methods. […] Values are the mean±SEM of at least three independent transfections. ND, not determined.

For test [2], the target named is T2, zebrafish PTH1R receptor, clone zPTH1R#29 (shorter 5' UT, 149 bp), transiently expressed in COS-7 cells (zebrafish (Danio rerio)).
T2 construct: Full-length cDNA expressed on intact COS-7 cells; also called zPPR1#29; zPTH1R(FL)/pcDNAI/Amp
T2 chain: T1 chain
The description is as above. Here is the method: as §1, §2

Test [3] has as its target T3, zebrafish PTH3R receptor, transiently expressed in COS-7 cells (zebrafish (Danio rerio)).
T3 construct: Full-length cDNA expressed on intact COS-7 cells; also called zPTH3R; zPPR3
T3 chain: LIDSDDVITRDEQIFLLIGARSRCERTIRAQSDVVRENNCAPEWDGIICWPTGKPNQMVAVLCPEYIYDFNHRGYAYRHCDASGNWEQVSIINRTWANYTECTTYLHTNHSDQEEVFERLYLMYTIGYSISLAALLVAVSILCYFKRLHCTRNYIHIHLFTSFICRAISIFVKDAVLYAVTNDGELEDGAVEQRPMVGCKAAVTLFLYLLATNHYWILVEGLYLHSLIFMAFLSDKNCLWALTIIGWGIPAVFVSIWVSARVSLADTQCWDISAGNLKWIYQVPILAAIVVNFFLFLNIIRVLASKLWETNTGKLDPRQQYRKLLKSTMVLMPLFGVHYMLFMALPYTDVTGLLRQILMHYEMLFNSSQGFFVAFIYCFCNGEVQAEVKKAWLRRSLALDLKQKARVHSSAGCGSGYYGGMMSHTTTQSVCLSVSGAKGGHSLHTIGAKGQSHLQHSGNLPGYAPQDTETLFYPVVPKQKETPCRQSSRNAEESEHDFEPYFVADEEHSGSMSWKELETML
The description is as above. Here is the method: as §1, §2

Test [4] addresses T1, zebrafish PTH1R receptor, clone …. Description: cell-based or functional assay.
In test [5] the target is T2, zebrafish PTH1R receptor, clone …. Description: cell-based or functional assay.
The target in test [6] is T3, zebrafish PTH3R receptor, transiently …. Description: cell-based or functional assay.
The target of test [7] is T2, zebrafish PTH1R receptor, clone …. Description: cell-based or functional assay.
Test [8] concerns the target T1, zebrafish PTH1R receptor, clone …. As to the kind of experiment: radioligand binding on COS-7 cells expressing the receptor. Here is the method: (§3) Plasmid DNAs encoding the two full length zPTH1Rs (#25 and #29) and the zPTH3R were transiently expressed in COS-7 cells. COS-7 African green monkey kidney cells (approximately 200,000 cells/well in a 24-well plate) were cultured and transfected with plasmid DNA (200 ng/well) as described (Rubin et al., (1998)). After transfection, cells were cultured for 72 hrs at 37° with daily exchanges of medium, followed by an additional 24 hrs at 33° (Gardella et al., (1997)) until they were functionally evaluated after 96 hrs.
as §1

Test [9] addresses T2, zebrafish PTH1R receptor, clone …. The description is as above. Here is the method:
as §3, §1

The target of test [10] is T3, zebrafish PTH3R receptor, transiently …. Described as above. Here is the method: as §3, §1

No end group written: not given here.

B1: [Tyr34]hPTH(1-34)amide (peptide)
peptide: SVSEIQLMHNLGKHLNSMERVEWLRKKLQDVHNY-NH2
notes: Synthetic analog of human PTH(1-34) with Tyr at 34
For B1, the IC50 in [1] is approximately 3 nM; in test [2] it was approximately 3 nM; in test [3], approximately 100 nM. Besides, the “cAMP EC50” value in test [4] is approximately 3 nM; in [5], 0.8 nM; in test [6] it was 5.98 nM. Further, the “cAMP Maximum” value in [4] is 90.4 pmol/well; in test [5], 106 pmol/well; in test [6] it was 227 pmol/well. Moreover, the “IP accumulation (total inositol phosphates, 10^-6 M ligand)” value in [7] amounted to 2 fold.

B2: 125I-labeled [Nle8,21,Tyr34]rPTH-(1-34)amide (peptide)
peptide: AVSEIQLXHNLGKHLASVERXQWLRKKLQDVHNY
modifications: Nle at 8 and 21; C-terminal amide; 125I-labeled
notes: Synthetic analog of rat PTH(1-34), used as radioligand
Regarding B2, the binding result in test [8], in test [9] and in test [10] was “binds” in each case.

These data come from patent US6541220 (GENERAL HOSPITAL, dated 2003).
